In US20040229260:

Assays:
[1] = target: T1, protein encoded by clone B33 (cDNA insert homologous to C-terminus of Nucleobindin), Q02818
T1 chain: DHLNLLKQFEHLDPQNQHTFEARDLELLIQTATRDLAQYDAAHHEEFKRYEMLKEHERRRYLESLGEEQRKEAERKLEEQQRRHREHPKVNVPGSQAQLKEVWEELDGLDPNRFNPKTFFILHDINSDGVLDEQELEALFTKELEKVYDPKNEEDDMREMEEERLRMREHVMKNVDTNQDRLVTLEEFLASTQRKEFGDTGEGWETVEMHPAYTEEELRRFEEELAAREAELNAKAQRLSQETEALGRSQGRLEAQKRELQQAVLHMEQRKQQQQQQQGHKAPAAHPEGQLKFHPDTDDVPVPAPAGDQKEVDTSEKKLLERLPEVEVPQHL

[2] = target: protein encoded by clone B11 (cDNA insert homologous to the C-terminal end of CTP-Phosphoenolamine cytidylyltransferase), Q99447
[3] = target: T2, polypeptide encoded by clone J2 (partial sequence of putative human N-acetylglucosamine-6-phosphate deacetylase)
T2 chain: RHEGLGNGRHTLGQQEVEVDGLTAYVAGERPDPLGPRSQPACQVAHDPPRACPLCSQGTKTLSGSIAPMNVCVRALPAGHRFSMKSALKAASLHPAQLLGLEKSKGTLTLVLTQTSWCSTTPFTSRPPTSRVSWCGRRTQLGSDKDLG

[4] = target: protein encoded by clone L12
[5] = target: T3, protein encoded by clone L20 (identical to amino acids 104-420 of NEFA), P80303
T3 chain: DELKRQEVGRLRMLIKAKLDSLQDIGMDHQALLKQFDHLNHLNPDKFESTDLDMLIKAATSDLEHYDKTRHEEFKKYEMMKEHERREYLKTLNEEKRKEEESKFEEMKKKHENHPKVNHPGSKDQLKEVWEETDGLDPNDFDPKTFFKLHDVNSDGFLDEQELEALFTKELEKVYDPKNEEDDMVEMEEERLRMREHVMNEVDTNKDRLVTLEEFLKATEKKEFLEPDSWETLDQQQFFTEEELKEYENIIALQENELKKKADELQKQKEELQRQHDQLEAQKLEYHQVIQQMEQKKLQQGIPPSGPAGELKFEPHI

[6] = target: protein encoded by the partial P43 cDNA clone
[7] = target: T4, bacterially produced caspase-8 (in-vitro protease assay of Example 2.4), Q14790
T4 chain: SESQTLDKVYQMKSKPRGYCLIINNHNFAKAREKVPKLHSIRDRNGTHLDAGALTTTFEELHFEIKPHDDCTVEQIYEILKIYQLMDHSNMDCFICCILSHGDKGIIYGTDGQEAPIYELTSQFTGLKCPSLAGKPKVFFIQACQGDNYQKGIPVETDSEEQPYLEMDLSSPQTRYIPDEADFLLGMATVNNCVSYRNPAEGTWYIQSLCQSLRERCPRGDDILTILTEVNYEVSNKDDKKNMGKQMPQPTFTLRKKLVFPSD

protein encoded by clone B11 (cDNA insert homologous to the C-terminal end of CTP-Phosphoenolamine cytidylyltransferase), Q99447, sequence (Q99447 213-389): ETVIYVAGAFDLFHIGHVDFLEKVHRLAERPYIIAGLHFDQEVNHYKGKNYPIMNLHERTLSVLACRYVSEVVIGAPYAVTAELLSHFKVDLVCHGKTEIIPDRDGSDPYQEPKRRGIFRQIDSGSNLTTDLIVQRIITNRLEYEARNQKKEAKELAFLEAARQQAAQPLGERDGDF

B1: bacterially produced caspase-8 (in-vitro protease assay of Example 2.4) (protein)
chain: T4 chain
For B1, the cleavage in vitro [1] was “Clone B33 was cleaved by caspase-8 both in-vitro and in-vivo”, the “cleavage in the in-vitro protease assay” value [2] was “Clone B11 was cleaved in-vitro by caspase-8 as demonstrated in the assay described in the above-mentioned Example 2.4” and the cleavage in vitro [3] was “The polypeptide encoded by Clone J2 is cleaved in-vitro by caspase-8”. For the same protein, the “cleavage in the in-vitro protease assay (35S labeled protein, SDS-PAGE, autoradiography)” value [4] was “Clone L12 is cleaved in-vitro by caspase-8 as shown by an in-vitro protease assay” and the cleavage in vitro [5] was “Clone L20 is cleaved by caspase 8 both in-vitro and in-vivo”.

B2: caspase 9 expressed in E. coli as Histidine tagged subunit 2-subunit 1 (S2-S1) fusion protein (protein)
chain: GALESLRGNADLAYILSMEPCGHCLIINNVNFCRESGLRTRTGSNIDCEKLRRRFSSLHFMVEVKGDLTAKKMVLALLELAQQDHGALDCCVVVILSHGCQASHLQFPGAVYGTDGCPVSVEKIVNIFNGTSCPSLGGKPKLFFIQACGGEQKDHGFEVASTSPEDESPGSNPEPDATPFQEGLRTFDQLDAISSLPTPSDIFVSYSTFPGFVSWRDPKSGSWYVETLDDIFEQWAHSEDLQSLLLRVANAVSVKGIYKQMPGCFNFLRKKLFFKTS
With B2 the “cleavage in the protease assay with bacterial lysate (1 or 4 RU)” value [6] was “it was not cleaved by caspase-3 nor by caspase-9”.

B3: protein encoded by clone L5 (Tip60, Tat interacting protein 60 kDa, lacking amino acids 94 to 145) (protein)
chain: MAEVGEIIEGCRLPVLRRNQDNEDEWPLAEILSVKDISGRKLFYVHYIDFNKRLDEWVTHERLDLKKIQFPKKEAKTPTKNGLPGSRPGSPEREVKRKVEVVSPATPVPSETAPASVFPQNGAARRAVAAQPGRKRKSNCLGTDEDSQDSSDGIPSAPRMTGSLVSDRSHDDIVTRMKNIECIELGRHRLKPWYFSPYPQELTTLPVLYLCEFCLKYGRSLKCLQRHLTKCDLRHPPGNEIYRKGTISFFEIDGRKNKSYSQNLCLLAKCFLDHKTLYYDTDPFLFYVMTEYDCKGFHIVGYFSKEKESTEDYNVACILTLPPYQRRGYGKLLIEFSYELSKVEGKTGTPEKPLSDLGLLSYRSYWSQTILEILMGLKSESGERPQITINEISEITSIKKEDVISTLQYLNLINYYKGQYILTLSEDIVDGHERAMLKRLLRIDSKCLHFTPKDWSKRGKW
In the case of B3, the “cleavage in the in-vitro protease assay” value [7] is reported as “Clone L5 was cleaved in-vitro by caspase-8 in the in-vitro protease assay described in Example 2.4”.

B4: caspase 3 expressed in E. coli as Histidine tagged subunit 2-subunit 1 (S2-S1) fusion protein (protein)
chain: SGISLDNSYKMDYPEMGLCIIINNKNFHKSTGMTSRSGTDVDAANLRETFRNLKYEVRNKNDLTREEIVELMRDVSKEDHSKRSSFVCVLLSHGEEGIIFGTNGPVDLKKITNFFRGDRCRSLTGKPKLFIIQACRGTELDCGIETDSGVDDDMACHKIPVEADFLYAYSTAPGYYSWRNSKDGSWFIQSLCAMLKQYADKLEFMHILTRVNRKVATEFESFSFDATFHAKKQIPCIVSMLTKELYFYH
For B4, the “cleavage in the protease assay with bacterial lysate (1 or 4 RU)” value [6] was “it was not cleaved by caspase-3 nor by caspase-9”.
